This note sets out measurements from IntAct's records for PubMed 35152348.

Sequences and labels used below:
B1: Proline-serine-threonine phosphatase-interacting protein 1 (Homo sapiens), O43586 (parent)
chain: MMPQLQFKDAFWCRDFTAHTGYEVLLQRLLDGRKMCKDMEELLRQRAQAEERYGKELVQIARKAGGQTEINSLRASFDSLKQQMENVGSSHIQLALTLREELRSLEEFRERQKEQRKKYEAVMDRVQKSKLSLYKKAMESKKTYEQKCRDADDAEQAFERISANGHQKQVEKSQNKARQCKDSATEAERVYRQSIAQLEKVRAEWEQEHRTTCEAFQLQEFDRLTILRNALWVHSNQLSMQCVKDDELYEEVRLTLEGCSIDADIDSFIQAKSTGTEPPAPVPYQNYYDREVTPLTSSPGIQPSCGMIKRFSGLLHGSPKTTSLAASAASTETLTPTPERNEGVYTAIAVQEIQGNPASPAQEYRALYDYTAQNPDELDLSAGDILEVILEGEDGWWTVERNGQRGFVPGSYLEKL
partner: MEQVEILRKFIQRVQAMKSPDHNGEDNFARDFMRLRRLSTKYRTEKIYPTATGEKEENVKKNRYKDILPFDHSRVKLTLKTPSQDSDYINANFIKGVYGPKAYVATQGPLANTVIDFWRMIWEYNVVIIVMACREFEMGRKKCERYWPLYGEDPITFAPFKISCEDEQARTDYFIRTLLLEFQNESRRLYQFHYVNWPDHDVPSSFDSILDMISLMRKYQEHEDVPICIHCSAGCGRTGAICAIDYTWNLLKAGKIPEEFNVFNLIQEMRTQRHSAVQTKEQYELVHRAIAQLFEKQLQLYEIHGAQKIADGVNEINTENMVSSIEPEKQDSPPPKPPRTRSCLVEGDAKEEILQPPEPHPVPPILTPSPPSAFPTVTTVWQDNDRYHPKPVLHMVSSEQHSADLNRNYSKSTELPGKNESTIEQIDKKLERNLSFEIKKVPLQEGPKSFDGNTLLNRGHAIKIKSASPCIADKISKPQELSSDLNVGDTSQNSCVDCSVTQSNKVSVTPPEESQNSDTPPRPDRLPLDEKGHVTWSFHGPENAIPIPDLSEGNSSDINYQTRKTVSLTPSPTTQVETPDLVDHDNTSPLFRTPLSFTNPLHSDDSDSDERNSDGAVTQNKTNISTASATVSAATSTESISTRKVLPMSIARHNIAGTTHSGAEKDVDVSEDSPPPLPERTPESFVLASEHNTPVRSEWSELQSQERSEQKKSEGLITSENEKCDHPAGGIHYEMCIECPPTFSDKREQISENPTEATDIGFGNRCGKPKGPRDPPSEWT
B2: Tyrosine-protein phosphatase non-receptor type 22 (Homo sapiens), Q9Y2R2-1 (parent)
chain: MDQREILQKFLDEAQSKKITKEEFANEFLKLKRQSTKYKADKTYPTTVAEKPKNIKKNRYKDILPYDYSRVELSLITSDEDSSYINANFIKGVYGPKAYIATQGPLSTTLLDFWRMIWEYSVLIIVMACMEYEMGKKKCERYWAEPGEMQLEFGPFSVSCEAEKRKSDYIIRTLKVKFNSETRTIYQFHYKNWPDHDVPSSIDPILELIWDVRCYQEDDSVPICIHCSAGCGRTGVICAIDYTWMLLKDGIIPENFSVFSLIREMRTQRPSLVQTQEQYELVYNAVLELFKRQMDVIRDKHSGTESQAKHCIPEKNHTLQADSYSPNLPKSTTKAAKMMNQQRTKMEIKESSSFDFRTSEISAKEELVLHPAKSSTSFDFLELNYSFDKNADTTMKWQTKAFPIVGEPLQKHQSLDLGSLLFEGCSNSKPVNAAGRYFNSKVPITRTKSTPFELIQQRETKEVDSKENFSYLESQPHDSCFVEMQAQKVMHVSSAELNYSLPYDSKHQIRNASNVKHHDSSALGVYSYIPLVENPYFSSWPPSGTSSKMSLDLPEKQDGTVFPSSLLPTSSTSLFSYYNSHDSLSLNSPTNISSLLNQESAVLATAPRIDDEIPPPLPVRTPESFIVVEEAGEFSPNVPKSLSSAVKVKIGTSLEWGGTSEPKKFDDSVILRPSKSVKLRSPKSELHQDRSSPPPPLPERTLESFFLADEDCMQAQSIETYSTSYPDTMENSTSSKQTLKTPGKSFTRSKSLKILRNMKKSICNSCPPNKPAESVQSNNSSSFLNFGFANRFSKPKGPRNPPPTWNI
B3: Proline-serine-threonine phosphatase-interacting protein 1 (Homo sapiens), O43586 (parent)
chain: B1 chain
partner: B2 chain
B4: Proline-serine-threonine phosphatase-interacting protein 1 (Homo sapiens), O43586 (parent)
chain: B1 chain
partner: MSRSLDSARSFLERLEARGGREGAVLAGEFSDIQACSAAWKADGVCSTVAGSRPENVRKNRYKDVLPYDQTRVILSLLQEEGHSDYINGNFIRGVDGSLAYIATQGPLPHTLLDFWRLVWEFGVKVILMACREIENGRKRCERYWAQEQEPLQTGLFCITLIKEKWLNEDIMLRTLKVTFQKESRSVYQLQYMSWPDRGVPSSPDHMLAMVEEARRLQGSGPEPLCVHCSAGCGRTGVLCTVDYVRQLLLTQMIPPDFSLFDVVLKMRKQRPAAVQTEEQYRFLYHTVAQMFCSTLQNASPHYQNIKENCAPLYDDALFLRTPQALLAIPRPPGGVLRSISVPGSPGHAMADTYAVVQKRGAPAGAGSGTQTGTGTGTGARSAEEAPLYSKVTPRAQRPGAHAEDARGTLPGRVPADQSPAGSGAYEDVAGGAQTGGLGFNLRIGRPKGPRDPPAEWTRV

One assay covers variants of B1. Particulars: with ptn12_human PTPN12, Q05209.
Regarding E250K, the “effect of a mutation on the interaction” value is recorded as “disrupting interaction strength”.
Same read-out and setting: the value for E250Q was “decreasing interaction strength”; that for Q219H was “with no effect”.
As to D266N, the “effect of a mutation on the interaction” value is “with no effect”.
Take E257G: the “effect of a mutation on the interaction” value is “with no effect”.
As to E257K, the “effect of a mutation on the interaction” value was “disrupting interaction strength”.
Same read-out and setting: the result for D246N reads “with no effect”.
For the variant A230T, the “effect of a mutation on the interaction” value is reported as “with no effect”.
As for T274M, the “effect of a mutation on the interaction” value was “with no effect”.
On the same count and under the same terms, the value for R228C was “disrupting interaction strength”.
On to G258A, for which the “effect of a mutation on the interaction” value was “with no effect”.
Consider W232A, for which the “effect of a mutation on the interaction” value is given as “disrupting interaction strength”.

In the next assay the parent is B2. Particulars: with ppip1_human PSTPIP1, O43586.
As to W805A, the “effect of a mutation on the interaction” value is listed as “decreasing interaction strength”.
In the case of R799A, the “effect of a mutation on the interaction” value is on record as “decreasing interaction strength”.

In a further assay the parent is B3. Particulars: with PTPN22, Q9Y2R2-1.
In the case of G403E, the “effect of a mutation on the interaction” value was “with no effect”.
On to G403R, for which the “effect of a mutation on the interaction” value was “with no effect”.
The same measure, in the same setting: the value for V344I was “with no effect”.
As for V122I, the “effect of a mutation on the interaction” value is recorded as “with no effect”.
Consider A230T, for which the “effect of a mutation on the interaction” value is “with no effect”.
Turning to E277D, the “effect of a mutation on the interaction” value is reported as “with no effect”.
R228C: the “effect of a mutation on the interaction” value is listed as “disrupting interaction strength”.
Turning to Q219H, the “effect of a mutation on the interaction” value is recorded as “with no effect”.
For the variant D246N, the “effect of a mutation on the interaction” value is on record as “decreasing interaction strength”.
Same read-out and setting: the result for Y345C reads “with no effect”; that for G258A, “with no effect”.
For the variant T68M, the “effect of a mutation on the interaction” value is “with no effect”.
Turning to R52Q, the “effect of a mutation on the interaction” value is given as “with no effect”.
On to T274M, for which the “effect of a mutation on the interaction” value was “with no effect”.
D266N: the “effect of a mutation on the interaction” value was “with no effect”.
Same read-out and setting: the result for E257G reads “with no effect”; that for E257K, “decreasing interaction strength”.
On to W232A, for which the “effect of a mutation on the interaction” value is recorded as “disrupting interaction strength”.
Turning to D384G, the “effect of a mutation on the interaction” value was “with no effect”.
Same read-out and setting: the result for R405C reads “with no effect”.
Take D289H: the “effect of a mutation on the interaction” value is “with no effect”.
In the case of E250K, the “effect of a mutation on the interaction” value is “disrupting interaction strength”.
Still for that read-out and setting: the result for E250Q reads “decreasing interaction strength”.

The variants in the next assay derive from B3. The settings on record: with PTPN22, Q9Y2R2-1. The source holds these as a separate data set.
As for R228C, the “effect of a mutation on the interaction” value is reported as “decreasing interaction strength”.
Same read-out and setting: the value for E257G was “decreasing interaction strength”; that for E250K was “decreasing interaction strength”.

A further assay covers variants of B3. The settings on record: with PTPN22, Q9Y2R2-1. This is another data set of the same source.
On to W232A, for which the “effect of a mutation on the interaction” value is reported as “decreasing interaction strength”.

In another assay the parent is B4. The settings on record: with ptn18_human PTPN18, Q99952.
A230T: the “effect of a mutation on the interaction” value is on record as “with no effect”.
Consider Q219H, for which the “effect of a mutation on the interaction” value is “with no effect”.
On the same count and under the same terms, the result for D246N reads “decreasing interaction strength”; that for T274M, “with no effect”; that for R228C, “disrupting interaction strength”.
Consider D266N, for which the “effect of a mutation on the interaction” value is recorded as “with no effect”.
On to E250K, for which the “effect of a mutation on the interaction” value is given as “disrupting interaction strength”.
For E250Q, the “effect of a mutation on the interaction” value is “decreasing interaction strength”.
For the variant G258A, the “effect of a mutation on the interaction” value is recorded as “with no effect”.
For the variant E257K, the “effect of a mutation on the interaction” value was “disrupting interaction strength”.
Consider E257G, for which the “effect of a mutation on the interaction” value was “with no effect”.
Consider W232A, for which the “effect of a mutation on the interaction” value is recorded as “disrupting interaction strength”.
